Experimental findings from article PMC5148762 are described below.

This test deals with protein G B1. The test can be described thus: quartz crystal microbalance with dissipation monitoring (QCM-D); protein G B1 adsorbed from 5 ug/ml in PBS onto polystyrene-coated gold quartz sensors, rinsed, then IgG flowed at 5 ug/ml in PBS, 150 ul/min, pH 7.4, 22 °C; mass by the Sauerbrey equation.

In the case of IgG antibody, the Sauerbrey mass bound was 350 ng/cm^2.
